T1: BCMA peptide 30SNTPPLTCQR39 (human)
T1 construct: Peptide of the CLIPS library; recognised in a linear form
T1 peptide: SNTPPLTCQR

T2: human BCMA (B-cell maturation antigen) on cells (human, UniProt Q02223 1-184)
T2 construct: whole, on cells; also called hBCMA; hBCMA/HEK293 cell line
T2 sequence (looked up): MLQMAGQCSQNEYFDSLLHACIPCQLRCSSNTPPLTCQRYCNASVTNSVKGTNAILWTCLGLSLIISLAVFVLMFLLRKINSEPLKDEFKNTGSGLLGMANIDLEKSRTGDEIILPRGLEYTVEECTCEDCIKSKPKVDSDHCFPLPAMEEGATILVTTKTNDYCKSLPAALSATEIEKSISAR

B1: BCMA-23 anti-BCMA scFv (scFv)
scFv: EVQLVESGGGLVKPGGSLRLSCAASGFTFSDYYMSWIRQAPGKGLEWVSYISSSGSTIYYADSVKGRFTISRDNAKNSLYLQMNSLRAEDTAVYYCAKVDGDYTEDYWGQGTLVTVSSGGGGSGGGGSGGGGSQSALTQPASVSGSPGQSITISCTGSSSDVGKYNLVSWYQQPPGKAPKLIIYDVNKRPSGVSNRFSGSKSGNTATLTISGLQGDDEADYYCSSYGGSRSYVFGTGTKVTVL
notes: BCMA-22 with the first residue of CDR-L3 (cysteine) replaced by serine
B2: BCMA-25 anti-BCMA scFv (scFv)
scFv: EVQLVQSGGGLVQPGRSLRLSCTASGFTFGDYAMSWFRQAPGKGLEWVGFIRSKAYGGTTEYAASVKGRFTISRDDSKSIAYLQMNSLKTEDTAVYYCAAWSAPTDYWGQGTLVTVSSGGGGSGGGGSGGGGSDIQMTQSPAFLSASVGDRVTVTCRASQGISNYLAWYQQKPGNAPRLLIYSASTLQSGVPSRFRGTGYGTEFSLTIDSLQPEDFATYYCQQSYTSRQTFGPGTRLDIK
notes: VH-(G4S)3-VL scFv
B3: BCMA-22 anti-BCMA scFv (scFv)
scFv: EVQLVESGGGLVKPGGSLRLSCAASGFTFSDYYMSWIRQAPGKGLEWVSYISSSGSTIYYADSVKGRFTISRDNAKNSLYLQMNSLRAEDTAVYYCAKVDGDYTEDYWGQGTLVTVSSGGGGSGGGGSGGGGSQSALTQPASVSGSPGQSITISCTGSSSDVGKYNLVSWYQQPPGKAPKLIIYDVNKRPSGVSNRFSGSKSGNTATLTISGLQGDDEADYYCCSYGGSRSYVFGTGTKVTVL
notes: VH-(G4S)3-VL scFv
B4: BCMA-18 anti-BCMA scFv (scFv)
scFv: EVQLLESGGGLVQPGGSLRLSCAASGFTFSSYWMSWHRQAPGKGPEWVAHINQDGSEKYYVDSVKGRFTISRDNAESSLYLQMNSLRAEDTAVYYCARWLAVTNWGQGTLVTVSSGGGGSGGGGSGGGGSQSVLTQPPSASGTPGQRVTISCSGSGSNIGSNDVSWYQQIPGTAPKLLIYWNDQRPSGVPDRFSGSKSGTSASLAISGLRSEDEADYYCAAWDDSLNGWVFGGGTKLTVL
notes: VH-(G4S)3-VL scFv
B5: BCMA-21 anti-BCMA scFv (scFv)
scFv: EVQLVESGGGLVKPGGSLKLSCAASGFTFSDYYMSWIRQAPGKGLEWVSYISSSGSTIYYADSVKGRFTISRDNAKNSLYLQMNSLRAEDTAVYYCAKVDGGYTEDYWGQGTLVTVSSGGGGSGGGGSGGGGSQSVLTQPPSASGTPGQRVTISCSGSGSNIGSNDVSWYQQIPGTAPKLLIYWNDQRPSGVPDRFSGSKSGISASLAISGLRSEDEADYYCAAWDDSLNGYVFGTGTKVTVL
notes: VH-(G4S)3-VL scFv
B6: BCMA-20 anti-BCMA scFv (scFv)
scFv: EVQLLESGGGLVQPGRSLRLSCAASGFTFDDYAMHWVRQAPGKGLEWVSGISWNSGSIGYADSVKGRFTISRDNAKNSLYLQMNSLRAEDTALYYCAKGGLGITPYYFDYWGQGTLVTVSSGGGGSGGGGSGGGGSQPVLTQPPSASGTPGQRVTISCSGGKTVNWFRQVPGTAPQLLIYSNDQRPSGVPDRFSGSKSGSSASLDISGLQSEDEAYYYCGSWDDSLNAWVFGGETKLTVL
notes: VH-(G4S)3-VL scFv
B7: BCMA-7 anti-BCMA scFv (scFv)
scFv: QVQLVQSGGGLVQPGRSLRLSCTASGFTFGDYAMSWFRQAPGKGLEWVGFIRSKAYGGTTEYAASVKGRFTISRDDSKSIAYLQMNSLKTEDTAVYYCAAWSAPTDYWGQGTLVTVSSGGGGSGGGGSGGGGSVIQLTQSPSSLSASVGDRVTITCRASQDIGDYLAWFQQRPGKAPKSLIYVASTLQSGVPSRFSGSGSGTHFTLTINSLQPEDFATYYCQQYHSHPWTFGPGTKVDIK
notes: VH-(G4S)3-VL scFv
B8: BCMA-9 anti-BCMA scFv (scFv)
scFv: EVQLVQSGGGLVKPGGSLRLSCAASGFTFSDYYMSWIRQAPGKGLEWVSYISSSGSTIYYADSVKGRFTISRDNAKNSLYLQMNSLRAEDTAVYYCARVDGDYVDDYWGQGTLVTVSSGGGGSGGGGSGGGGSSYELTQPPSVSVAPGQTARVTCGANNIGSKSVHWYQQKPGQAPMLVVYDDDDRPSGIPERFSGSNSGNTATLTISGVEAGDEADYFCHVWDRSRDHYVFGTGTKLTVL
notes: VH-(G4S)3-VL scFv
B9: BCMA-4 anti-BCMA scFv (scFv)
scFv: QVQLVQSGGGLVQPGRSLRLSCTASGFTFGDYAMSWFRQAPGKGLEWVGFIRSKAYGGTTEYAASVKGRFTISRDDSKSIAYLQMNSLKTEDTAVYYCAAWSAPTDYWGQGTLVTVSSGGGGSGGGGSGGGGSAIRMTQSPSSLSASLGDRVTITCRASQDIRNSLAWYQQRPGKAPKLLLSAASRLESGVPSRFSGTTSGAEYALSISSLQPEDVASYFCQQYYSLPLSFGGGTKVEIK
notes: VH-(G4S)3-VL scFv
B10: BCMA-12 anti-BCMA scFv (scFv)
scFv: EVQLVESGGGLVKPGGSLRLSCAASGFTFSDYYMSWIRQAPGKGLEWVSYISSSGSTIYYADSVKGRFTISRDNAKNSLYLQMNSLRAEDTAVYYCAKVDGPPSFDIWGQGTMVTVSSGGGGSGGGGSGGGGSQSALTQPPSVSAAPGQKVTISCSGSRSNIGNNYVSWYQQLPGTAPKLLIYDNAKRPSGIPDRFSGSKSGTSATLDIAGLQTGDEADYYCQVWDSSSDHWVFGGGTKLTVL
notes: VH-(G4S)3-VL scFv
B11: BCMA-32 anti-BCMA scFv (scFv)
scFv: QVQLVESGGGLVKPGGSLRLSCAASGFTFSDYYMSWIRQAPGKGLEWVSYISSSGSTIYYADSVKGRFTISRDNAKNSLYLQMNSLRAEDTAVYYCAKVDGPPSFDIWGQGTMVTVSSGGGGSGGGGSGGGGSQTVVTQPPSVSVAPGQTARITCGGNNIGSKGVHWYRQRPGQAPEVVIYDDSDRPSGVPDRFSGSNSGNTATLTVRGVEAGDEADYYCQVWDSSSDHWVFGGGTKLTVL
notes: VH-(G4S)3-VL scFv
B12: BCMA-2 anti-BCMA scFv (scFv)
scFv: EVQLVESGGGLVKPGGSLRLSCAASGFTFSDYYMSWIRQAPGKGLEWVSYISSSGSTIYYADSVKGRFTISRDNAKNSLYLQMNSLRAEDTAVYYCAKVDGPPSSDIWGQGTMVTVSSGGGGSGGGGSGGGGSEIVMTQSPATLSVSPGETATLSCRASQSIKTNLAWYQQKPGQAPRLLIYAASTRATGIPDRFSGSGSGTDFTLTITRLEPEDFAVYYCQQYGSSPTFGRGTKLEIK
notes: VH-(G4S)3-VL scFv
B13: BCMA-10 anti-BCMA scFv (scFv)
scFv: EVQLVESGGGLVKPGGSLRLSCAASGFPFSDYYMSWIRQAPGKGLEWVSYISSSGSTIYYADSVKGRFTISRDNAKNSLYLQMNSLRAEDTAVYYCAKVDGPPSFDIWGQGTMVTVSSGGGGSGGGGSGGGGSSYVLTQPPSVSVAPGQTARITCGGNNIERKNVHWYQQKPGQAPVPVVYDDSDRASGIPERFSASNSGNTATLTISGAQATDEAEYYCQAWDSSSTLYVFGTGTKLTVL
notes: VH-(G4S)3-VL scFv
B14: BCMA-8 anti-BCMA scFv (scFv)
scFv: QVQLVQSGGGLVQPGRSLRLSCTASGFTFGDYAMSWFRQAPGKGLEWVGFIRSKAYGGTTEYAASVKGRFTISRDDSKSIAYLQMNSLKTEDTAVYYCAAWSAPTDYWGQGTLVTVSSGGGGSGGGGSGGGGSDIVMTQSPDSLAVSLGERATINCKSSQSVLYSSNNKNYLAWYQQKPGQPPKLLIYWASTRESGVPDRFSGSGSGTDFTLTISSLQAEDVAVYYCQQYYSTPYTFGQGTKLEIK
notes: VH-(G4S)3-VL scFv
B15: BCMA-3 anti-BCMA scFv (scFv)
scFv: QVQLVQSGGGLVQPGRSLRLSCTASGFTFGDYAMSWFRQAPGKGLEWVGFIRSKAYGGTTEYAASVKGRFTISRDDSKSIAYLQMNSLKTEDTAVYYCAAWSAPTDYWGQGTLVTVSSGGGGSGGGGSGGGGSDIVMTQSPDSLVVSLGERATINCKSSQSVLHSSNNKNYLAWYQQKPGQPPKLLIYWASTRESGVPDRFSGSGSGTDFTLTISSLQAEDVAVYYCQQYYTTPLTFGGGTKVEIK
notes: VH-(G4S)3-VL scFv
B16: BCMA-31 anti-BCMA scFv (scFv)
scFv: EVQLVQSGGGLVQPGRSLRLSCTASGFTFGDYAMSWFRQAPGKGLEWVGFIRSKAYGGTTEYAASVKGRFTISRDDSKSIAYLQMNSLKTEDTAVYYCAAWSAPTDYWGQGTLVTVSSGGGGSGGGGSGGGGSDVVMTQSPDSLAVSLGERATISCKSSQSVLNSSNNKNYVAWYKQKPGQPPKLVISWASTRESGVPDRFSGSGSGTDFTLTISSLQAEDVAVYYCQQYYSTPYTFGQGTKLDIK
notes: VH-(G4S)3-VL scFv

Consider 16 molecules from patent publication US20200392236A1 (JUNO THERAPEUTICS, published 2020).

The target in the first assay is T1, BCMA peptide 30SNTPPLTCQR39. The assay is described as follows: CLIPS peptide array ELISA. On the procedure:
Epitopes recognized, e.g., specifically bound to, by exemplary anti-BCMA scFv clones (BCMA-1, BCMA-5, BCMA-9, BCMA-23, BCMA-25, BCMA-26, BCMA-52 and BCMA-55 anti-BCMA scFvs), were assessed using full discontinuous epitope mapping by Chemical Linkage of Peptides onto Scaffolds (CLIPS; Pepscan Presto BV, Lelystad, The Netherlands; see, e.g., Timmerman et al., (2007) J. Mol. Recognit. 20: 283-329). Mapping was carried out using anti-BCMA scFv clones, such as those fused with mouse Fc (scFv-mFc).
Linear and conformational peptide libraries of amino acid residues 1-54 of human BCMA (set forth as amino acid residues 1-54 of SEQ ID NO:367) were generated based on a combinatorial matrix design. Linear peptides and structural mimetics including single loop, α-helix, β-turn, combinatorial and linear disulfide bridge mimics, and discontinuous epitope mimics were used, along with positive and negative control peptides, on an amino-functionalized solid support.
Affinities for binding to the peptides in the epitope library were determined using ELISA. The peptide arrays were incubated with a solution containing the scFv overnight at 4° C. Affinity information was used in iterative screens to define the sequence and conformation of epitopes. Heat maps of affinity information for two or more loops were generated.
As for B1, the binding result is on record as “binds”. On to B2, for which the binding result is “binds”.

In a further assay the target is T2, human BCMA (B-cell maturation antigen) …. The assay is described as follows: flow cytometry, hBCMA-expressing HEK293 against parental HEK293 cells. Here is the method:
Binding of exemplary scFv clones to hBMCA-expressing HEK293 cells was assessed and binding was compared to parental HEK293 cells.
(In flow cytometry, cells or beads pass a laser one at a time.)
Take B3: the “fold selective binding (hBCMA-expressing HEK293 over parental HEK293 cells)” value was determined as 7.5 fold. Same read-out and setting: the value for B4 was 2.2 fold; that for B5 was 3.4 fold; that for B6 was 10.8 fold.

For a further assay the target is unchanged. Kind of assay: flow cytometry, hBCMA-overexpressing HEK293 compared with OPM2 and RPMI-8226 cells. On the procedure:
Binding of exemplary scFv clones to hBMCA-overexpressing HEK293 cells as compared to OPM2 and RPMI-8226 cell lines that express moderate levels of endogenous BCMA was assessed.
In the case of B7, the binding result was “binds”.

For the molecule B8, the binding result is “binds”.

Take B9: the binding result was “binds”. B10: the binding result is “binds”. On the same count and under the same terms, the value for B11 was “binds”; that for B12 was “binds”; that for B13 was “binds”. Same read-out and setting: the result for B14 reads “binds”; that for B15, “binds”. The same measure, in the same setting: the value for B16 was “binds”.
